This experiment concerns the target extracellular domain of quail MuSK (amino acid residues 1 to 463), His-tagged (quail). Put plainly: ELISA. On the technique in general: In an ELISA, binding on a coated surface is turned into a signal by an enzyme label.

Our source for the signal of the plate assay (read values is paper PMC3313673.

B1: biotinylated recombinant biglycan (non-glycanated form) (ligand)
chain: DEEASGADTSGVLDPDSVTPTYSAMCPFGCHCHLRVVQCSDLGLKSVPKEISPDTTLLDLQNNDISELRKDDFKGLQHLYALVLVNNKISKIHEKAFSPLRKLQKLYISKNHLVEIPPNLPSSLVELRIHDNRIRKVPKGVFSGLRNMNCIEMGGNPLENSGFEPGAFDGLKLNYLRISEAKLTGIPKDLPETLNELHLDHNKIQAIELEDLLRYSKLYRLGLGHNQIRMIENGSLSFLPTLRELHLDNNKLARVPSGLPDLKLLQVVYLHSNNITKVGVNDFCPMGFGVKRAYYNGISLFNNPVPYWEVQPATFRCVTDRLAIQFGNYKK
modifications: biotin (site not stated)
Molecule B1 came in with a signal of the plate assay (read at 415 nm) of 0.45.
